Values joined by “and” are separate entries in the source; they are usually repeats but may differ in a detail not shown here. Identical values can stand only once. Like-named read-outs stand apart in the source and are kept apart here.
How the values were obtained:
CaBdf1 BD1 [1] = target: T1, CaBdf1 BD1 (Candida albicans, UniProt Q5A4W8); test: HTRF assay, inhibition of BD binding to H4ac4 peptide; set-up: species or system C. albicans; conditions: HTRF, H4ac4 peptide, BETi, maximal concentration 10 μM
T1 construct: made in house; host or cells: E. coli BL21(DE3)

CaBdf1 BD2 [2] = target: T2, CaBdf1 BD2 (Candida albicans, UniProt Q5A4W8); test: as above; set-up: made in house; host or cells: E. coli BL21(DE3)
CaBdf1 BD2 [3] = target: T2, CaBdf1 BD2; test: Isothermal titration calorimetry (ITC); assay type: binding; set-up: His tag with TEV site (N, cleaved yes); made in house; host or cells: E. coli BL21(DE3); conditions: ITC
Method: (§1) Proteins used for crystallization and for ITC. […] Cells were resuspended in buffer A (50 mM Tris-HCl pH 7.5, 300 mM NaCl, 10% glycerol, 25 mM imidazole, 5 mM β-mercaptoethanol and protease inhibitors) and lysed by sonication. The cleared lysate was incubated with Ni-NTA resin (Qiagen) and washed with buffer A containing 0.5 M NaCl. Proteins were eluted with 250 mM imidazole, dialysed overnight in the presence of His-tagged TEV protease against buffer A containing no imidazole and incubated with Ni-NTA resin to remove His-tagged species. Proteins were further purified on a Superdex 75 10/300 (GE Healthcare) column in 50 mM Hepes pH 7.5, 150 mM NaCl, 0.5 mM dithiothreitol (DTT). Proteins were concentrated to >20 mg ml^−1 on a Centricon device (Millipore) and used for ITC, TSA and crystallization experiments. […] Expression and purification were performed as above, except that buffer A was replaced by buffer B (50 mM Hepes pH 7.5, 500 mM NaCl, 5% glycerol, 5 mM imidazole and protease inhibitors) and gel filtration was performed in 10 mM Hepes pH 7.5, 500 mM NaCl and 5% glycerol.
(§2) Calorimetric experiments were performed on a NanoITC calorimeter (TA Instruments) at 25 °C while stirring at 250 r.p.m. All proteins were buffer exchanged by gel filtration into 50 mM Hepes pH 7.5, 150 mM NaCl, 0.5 mM DTT, except for SMARCA2 and SMARCA4A BDs, which were exchanged into 10 mM Hepes pH 7.5, 500 mM NaCl and 5% glycerol. […] Titrations consisted of an initial injection of 1.5 μl followed by 19 identical injections of 2.5 μl made at time intervals of 5 min. ITC data were corrected for the heat of dilution of injectant into buffer and analysed with software provided by the manufacturer using a single binding site model. The first data point was excluded from the analysis. Thermodynamic parameters determined from the ITC data are summarized in Supplementary Table 1.

CaBdf1 BD1 [4] = target: T1, CaBdf1 BD1; test: Isothermal titration calorimetry (ITC); assay type: binding; conditions: ITC
Method: as §1, §2

human Brd4 BD1 = human Brd4 BD1 (Homo sapiens, UniProt O60885); test: Isothermal titration calorimetry (ITC); assay type: binding; set-up: human Brd4 BD1 (residues 22–204); His tag with TEV site (N, cleaved yes); made in house; host or cells: E. coli BL21(DE3); conditions: ITC, 25 °C
Method: as §1, §2

[5] = system: 32 representative human (BET and non-BET) BDs; set-up: method as in earlier work; conditions: cited from earlier work
CaBdf1 BD2 [6] = target: T3, CaBdf1 BD2 (Candida albicans, UniProt Q5A4W8); assay type: binding; conditions: wild-type BD2; for CaBdf1 BD2 Normalized (0 to 100%) WT: normalized array signal; for CaBdf1 BD2 Raw data WT: peptide array signal;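 on CaBdf1 BD2 Normalized (0 to 100%) WT: normalized to spotted c-myc peptide positive control signal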
T3 construct: made in house; host or cells: E. coli BL21(DE3)
T3 sequence (Q5A4W8 whole entry, looked up): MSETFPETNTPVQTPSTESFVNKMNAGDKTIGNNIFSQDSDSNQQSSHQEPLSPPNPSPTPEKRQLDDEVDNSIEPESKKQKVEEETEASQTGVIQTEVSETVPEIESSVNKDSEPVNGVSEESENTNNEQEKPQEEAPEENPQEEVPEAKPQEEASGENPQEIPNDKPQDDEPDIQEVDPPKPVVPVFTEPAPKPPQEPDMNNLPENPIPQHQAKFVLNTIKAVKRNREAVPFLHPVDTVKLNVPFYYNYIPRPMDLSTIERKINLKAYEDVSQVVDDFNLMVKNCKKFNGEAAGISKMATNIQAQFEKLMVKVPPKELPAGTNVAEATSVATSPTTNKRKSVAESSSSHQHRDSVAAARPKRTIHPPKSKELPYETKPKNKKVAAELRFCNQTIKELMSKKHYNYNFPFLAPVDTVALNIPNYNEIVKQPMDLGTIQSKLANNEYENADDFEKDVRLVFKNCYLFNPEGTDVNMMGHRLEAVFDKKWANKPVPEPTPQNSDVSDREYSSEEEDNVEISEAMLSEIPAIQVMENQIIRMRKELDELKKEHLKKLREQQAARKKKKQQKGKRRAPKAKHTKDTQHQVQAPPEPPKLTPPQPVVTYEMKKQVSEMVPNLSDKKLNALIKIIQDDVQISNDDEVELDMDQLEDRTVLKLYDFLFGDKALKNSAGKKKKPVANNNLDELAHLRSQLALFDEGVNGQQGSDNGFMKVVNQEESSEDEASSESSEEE
Method: (§3) In short, arrays were blocked and incubated with 1 μM of purified CaBdf1 BD1 or BD2. Arrays were incubated with recombinant BDs for 2 h at 4 °C in binding buffer (Tris-HCl 50 mM pH 7.4, NP-40 0.1%, NaCl 150 mM, glycerol 10%). […] Assays were performed in duplicate.

CaBdf1 BD1 [7] = target: T4, CaBdf1 BD1 (Candida albicans, UniProt Q5A4W8); assay type: binding; conditions: wild-type BD1; for CaBdf1 BD1 Normalized (0 to 100%) WT: normalized array signal; for CaBdf1 BD1 Raw data WT: peptide array signal;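 on CaBdf1 BD1 Normalized (0 to 100%) WT: normalized to spotted c-myc peptide positive control signal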
T4 construct: made in house; host or cells: E. coli BL21(DE3)
T4 sequence (Q5A4W8 whole entry, looked up): T3 sequence (Q5A4W8 whole entry, looked up)
Method: as §3

CaBdf1 BD1 Y248F = target: T5, CaBdf1 BD1 Y248F (Candida albicans, UniProt Q5A4W8, Y248F); test: Histone peptide microarray binding, YF mutant;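 on CaBdf1 BD1 Normalized (0 to 100%) YF mutant: normalized to spotted c-myc peptide positive control signal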; set-up: species or system C. albicans; conditions: YF mutant BD1; for CaBdf1 BD1 Normalized (0 to 100%) YF mutant: normalized array signal; for CaBdf1 BD1 Raw data YF mutant: peptide array signal
T5 construct: made in house; host or cells: E. coli BL21(DE3), inferred from the wild-type GST construct
Method: as §3, with “duplicate. Images were acquired on a Bio-Rad ChemiDoc XRS Imaging machine and data were quantified using the array analyser software provided by Active Motif.” for “duplicate.”

CaBdf1 BD2 Y425F = target: T6, CaBdf1 BD2 Y425F (Candida albicans, UniProt Q5A4W8, Y425F); test: Histone peptide microarray binding, YF mutant;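 on CaBdf1 BD2 Normalized (0 to 100%) YF mutant: normalized to spotted c-myc peptide positive control signal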; set-up: species or system C. albicans; conditions: YF mutant BD2; for CaBdf1 BD2 Normalized (0 to 100%) YF mutant: normalized array signal; for CaBdf1 BD2 Raw data YF mutant: peptide array signal
T6 construct: made in house; host or cells: E. coli BL21(DE3), inferred from the wild-type GST construct
Method: as §3, with “duplicate. Images were acquired on a Bio-Rad ChemiDoc XRS Imaging machine and data were quantified using the array analyser software provided by Active Motif.” for “duplicate.”

T5 sequence (Q5A4W8 193-327 Y248F): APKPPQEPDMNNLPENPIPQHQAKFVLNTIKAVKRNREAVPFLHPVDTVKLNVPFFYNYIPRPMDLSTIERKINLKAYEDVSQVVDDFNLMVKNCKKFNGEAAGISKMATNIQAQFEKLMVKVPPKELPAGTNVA
T6 sequence (Q5A4W8 361-501 Y425F): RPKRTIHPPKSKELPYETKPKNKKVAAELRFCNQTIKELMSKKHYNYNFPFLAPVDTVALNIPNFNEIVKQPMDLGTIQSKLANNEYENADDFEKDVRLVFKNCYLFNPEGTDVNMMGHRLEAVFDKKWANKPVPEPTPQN

Row | Compound | IC50 (CaBdf1 BD1 [1]; read-out: IC50 values) | IC50 (CaBdf1 BD2 [2]) | CaBdf1 BD2 Normalized (0 to 100%) WT (CaBdf1 BD2 [6]) | CaBdf1 BD2 Raw data WT (CaBdf1 BD2 [6]) | CaBdf1 BD1 Normalized (0 to 100%) WT (CaBdf1 BD1 [7]) | CaBdf1 BD1 Raw data WT (CaBdf1 BD1 [7]; first of two raw-data columns) | CaBdf1 BD1 Raw data WT (CaBdf1 BD1 [7]) | CaBdf1 BD1 Normalized (0 to 100%) YF mutant (CaBdf1 BD1 Y248F) | CaBdf1 BD1 Raw data YF mutant (CaBdf1 BD1 Y248F; first of two raw-data columns) | CaBdf1 BD1 Raw data YF mutant (CaBdf1 BD1 Y248F) | CaBdf1 BD2 Normalized (0 to 100%) YF mutant (CaBdf1 BD2 Y425F) | CaBdf1 BD2 Raw data YF mutant (CaBdf1 BD2 Y425F) | CaBdf1 BD2 Raw data WT (CaBdf1 BD2 [6]; first of two raw-data columns) | CaBdf1 BD2 Raw data YF mutant (CaBdf1 BD2 Y425F; first of two raw-data columns) | other results
1 | COc1ccccc1S(=O)(=O)Nc1ccc2c(c1)CN(C)C(=O)N2 [PFI-1, reference compound] | > 10 µM | ~10 µM |  |  |  |  |  |  |  |  |  |  |  |  | 
2 | Cc1sc2c(c1C)C(c1ccc(Cl)cc1)=N[C@@H](CC(=O)OC(C)(C)C)c1nnc(C)n1-2 [JQ1, reference compound] |  |  |  |  |  |  |  |  |  |  |  |  |  |  | binding to CaBdf1 BD2 (in words) (CaBdf1 BD2 [3]): no binding was detected; IC50 (CaBdf1 BD1 [1]; IC50 values): > 10 µM; binding to CaBdf1 BD1 (in words) (CaBdf1 BD1 [4]): no binding was detected; N (stoichiometry) (human Brd4 BD1): 1.00 ± 0.03; TΔS (human Brd4 BD1): -2.935 kcal/mol; ΔH (human Brd4 BD1): -12.8 ± 0.12 kcal/mol; IC50 (CaBdf1 BD2 [2]; HTRF, H4ac4 peptide, BETi, maximal concentration 10 μM, read-out: IC50 values): ~10 µM
3 | CCOC(=O)Nc1cc(-c2ccc(C)c(NS(C)(=O)=O)c2)nn2c(C)nnc12 [Bromosporine, reference compound] | > 10 µM | 0.313 ± 0.002 µM |  |  |  |  |  |  |  |  |  |  |  |  | 
4 | COc1cc2c(cc1-c1c(C)noc1C)ncc1[nH]c(=O)n([C@H](C)c3ccccn3)c12 [IBET-151, reference compound] | 0.303 ± 0.12 µM | 1.47 ± 0.09 µM |  |  |  |  |  |  |  |  |  |  |  |  | 
5 | Cc1sc2c(c1C)C(c1ccc(Cl)cc1)=N[C@@H](CC(=O)NCCCCNC(=O)COc1cccc3c1C(=O)N(C1CCC(=O)NC1=O)C3=O)c1nnc(C)n1-2 (stereo partly drawn) [dBET1] |  |  |  |  |  |  |  |  |  |  |  |  |  |  | BROMOscan signal, percent of control ([5]; CREBBP, EP300, FALZ and SMARCA4): 25-35%; BROMOscan signal, percent of control ([5]; six BET BDs): 0%; BROMOscan signal, percent of control ([5]; the other two BET BDs): 0.25% and 1.6%; BROMOscan signal, percent of control ([5]; the remaining BDs): > 35%
6 | A Rme2a T Kme2 Q T A Rme2a K S T G G K A P R K Q |  |  | 0.444% | 0.01098 | 0.508% | 0.007483 | 0.003741 | 0.727% | 0.007202 | 0.003086 | 0.293% | 0.002427 |  |  | 
7 | A Rme2s T Kme1 Q T A R Kme3 S T G G K A P R K Q |  |  | 0.259% | 0.001373 | 0.326% | 0.00481 | 0.003741 | 0.727% | 0.007202 | 0.002743 | 0.195% |  | 0.0151 |  | 
8 | A Rme2a T Kme2 Q T A R Kme2 S T G G K A P R K Q |  |  | 0.222% | 0.0006863 | 0.399% | 0.00481 | 0.00481 | 0.727% | 0.007202 | 0.002401 | 0.0977% | 0.002427 | 0.0151 | 0.0009709 | 
9 | A Rme2s T Kme2 Q T A Rme2s K S T G G K A P R K Q |  |  | 0.629% | 0.01579 | 0.181% | 0.002672 | 0.003741 | 0.624% | 0.006173 | 0.003086 | 0.244% | 0.004854 | 0.00755 | 0.002427 | 
10 | A Rme2s T Kme2 Q T A R Kme1 S T G G K A P R K Q |  |  | 0.444% | 0.005491 | 0.544% | 0.006414 | 0.005345 | 0.762% |  | 0.005144 | 0.244% | 0.003398 | 0.01441 | 0.002427 | 
